{"source": "patent US20240425609A1", "key": {"[1]": {"target": "human CD22 (human) (UniProt P20273)", "sequence (P20273 20-847)": "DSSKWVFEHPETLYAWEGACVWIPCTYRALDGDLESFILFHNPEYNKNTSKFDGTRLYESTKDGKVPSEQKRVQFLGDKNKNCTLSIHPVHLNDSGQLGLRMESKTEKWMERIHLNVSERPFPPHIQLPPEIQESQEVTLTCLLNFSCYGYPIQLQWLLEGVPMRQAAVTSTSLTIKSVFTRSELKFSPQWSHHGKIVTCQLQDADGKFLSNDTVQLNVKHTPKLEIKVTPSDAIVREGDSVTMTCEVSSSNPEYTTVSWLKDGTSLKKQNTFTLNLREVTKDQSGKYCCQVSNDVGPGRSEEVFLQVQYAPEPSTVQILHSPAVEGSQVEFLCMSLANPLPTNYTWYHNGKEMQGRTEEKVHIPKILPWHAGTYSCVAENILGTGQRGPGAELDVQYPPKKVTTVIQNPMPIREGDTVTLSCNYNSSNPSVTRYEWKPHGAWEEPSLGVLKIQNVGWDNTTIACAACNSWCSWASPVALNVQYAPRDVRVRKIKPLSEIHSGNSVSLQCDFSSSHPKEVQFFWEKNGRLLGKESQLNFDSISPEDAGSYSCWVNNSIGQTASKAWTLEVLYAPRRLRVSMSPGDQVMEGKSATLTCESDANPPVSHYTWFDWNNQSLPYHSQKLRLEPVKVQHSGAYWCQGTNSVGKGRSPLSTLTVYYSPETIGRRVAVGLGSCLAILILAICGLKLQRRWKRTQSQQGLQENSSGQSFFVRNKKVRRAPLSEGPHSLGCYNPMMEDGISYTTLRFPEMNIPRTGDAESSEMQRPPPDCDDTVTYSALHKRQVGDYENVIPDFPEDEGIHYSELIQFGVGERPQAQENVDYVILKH", "assay": "cell-based or functional assay"}, "[2]": {"target": "human CD3 (human)", "assay": "cell-based or functional assay"}, "[3]": {"target": "mouse PD1 (mouse) (UniProt Q02242)", "sequence (Q02242 25-288)": "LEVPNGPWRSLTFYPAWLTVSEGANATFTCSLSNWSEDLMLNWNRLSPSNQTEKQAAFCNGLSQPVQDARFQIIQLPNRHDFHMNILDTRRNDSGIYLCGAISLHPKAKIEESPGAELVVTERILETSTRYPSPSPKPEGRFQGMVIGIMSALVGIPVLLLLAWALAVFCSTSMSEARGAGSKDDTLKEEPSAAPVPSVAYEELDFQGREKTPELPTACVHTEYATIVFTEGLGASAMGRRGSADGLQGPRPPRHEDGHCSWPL", "assay": "cell-based or functional assay"}, "[4]": {"target": "mouse CD20 (mouse) (UniProt P19437)", "sequence (P19437 whole entry)": "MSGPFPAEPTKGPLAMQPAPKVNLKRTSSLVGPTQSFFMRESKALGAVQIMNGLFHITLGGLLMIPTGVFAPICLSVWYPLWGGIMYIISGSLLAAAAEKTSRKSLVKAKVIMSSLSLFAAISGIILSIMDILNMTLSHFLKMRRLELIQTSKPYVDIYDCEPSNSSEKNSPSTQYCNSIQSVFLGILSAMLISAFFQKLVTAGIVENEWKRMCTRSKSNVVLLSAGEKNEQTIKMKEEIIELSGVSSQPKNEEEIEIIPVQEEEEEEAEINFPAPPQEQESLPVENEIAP", "assay": "flow cytometry on MC38/mCD20 cells"}}}
{"substance": "CD3 bsAb (REGN10551) (bispecific antibody)", "values": [{"measurement": "EC50, activation of T cell signaling (AP1-luciferase), run with 1 nM CD3 bsAb", "setting": "[1]", "value": 1.15, "unit": "nM"}, {"measurement": "EC50, activation of T cell signaling (AP1-luciferase), run with 2.5 nM CD3 bsAb", "setting": "[1]", "value": 0.627, "unit": "nM"}, {"measurement": "EC50, activation of T cell signaling (AP1-luciferase), run with 1 nM CD3 bsAb", "setting": "[2]", "value": 1.15, "unit": "nM"}, {"measurement": "EC50, activation of T cell signaling (AP1-luciferase), run with 2.5 nM CD3 bsAb", "setting": "[2]", "value": 0.627, "unit": "nM"}]}
{"substance": "REGN1932 (hIgG1 control) (antibody)", "values": [{"measurement": "Max % inhibition, AP1-luciferase bioassay, 2.5 nM CD3 bsAb", "setting": "[3]", "value": 3, "unit": "%"}]}
{"substance": "Single arm mPDL1 WT-Fc (Fc fusion)", "values": [{"measurement": "Max MFI", "setting": "[4]", "value": 94.9, "unit": "MFI"}]}
